In patent US20250186597A1 (BRIGHT PEAK THERAPEUTICS, published 2025):
Values joined by “and” are separate entries in the source; they are usually repeats but may differ in a detail not shown here. Identical values can stand only once.

T1: IL-18R on HEK-Blue IL18R reporter cells (InvivoGen, #hkb-hmi118) (UniProt Q13478 19-541; O95256 20-599, limits assumed)
T1 sequence (looked up) 1: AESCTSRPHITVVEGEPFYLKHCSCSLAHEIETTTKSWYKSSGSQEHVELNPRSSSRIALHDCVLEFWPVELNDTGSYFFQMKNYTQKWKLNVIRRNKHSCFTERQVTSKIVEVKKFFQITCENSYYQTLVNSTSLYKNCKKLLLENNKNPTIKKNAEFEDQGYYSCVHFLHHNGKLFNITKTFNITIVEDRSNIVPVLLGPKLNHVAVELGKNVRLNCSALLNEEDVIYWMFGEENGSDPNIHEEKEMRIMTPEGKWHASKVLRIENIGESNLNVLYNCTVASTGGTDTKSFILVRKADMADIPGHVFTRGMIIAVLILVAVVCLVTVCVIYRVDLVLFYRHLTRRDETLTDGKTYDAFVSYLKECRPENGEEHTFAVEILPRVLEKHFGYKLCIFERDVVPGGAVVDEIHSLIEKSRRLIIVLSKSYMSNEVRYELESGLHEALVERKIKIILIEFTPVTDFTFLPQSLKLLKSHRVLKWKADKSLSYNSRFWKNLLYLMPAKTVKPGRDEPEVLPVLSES
T1 sequence (looked up) 2: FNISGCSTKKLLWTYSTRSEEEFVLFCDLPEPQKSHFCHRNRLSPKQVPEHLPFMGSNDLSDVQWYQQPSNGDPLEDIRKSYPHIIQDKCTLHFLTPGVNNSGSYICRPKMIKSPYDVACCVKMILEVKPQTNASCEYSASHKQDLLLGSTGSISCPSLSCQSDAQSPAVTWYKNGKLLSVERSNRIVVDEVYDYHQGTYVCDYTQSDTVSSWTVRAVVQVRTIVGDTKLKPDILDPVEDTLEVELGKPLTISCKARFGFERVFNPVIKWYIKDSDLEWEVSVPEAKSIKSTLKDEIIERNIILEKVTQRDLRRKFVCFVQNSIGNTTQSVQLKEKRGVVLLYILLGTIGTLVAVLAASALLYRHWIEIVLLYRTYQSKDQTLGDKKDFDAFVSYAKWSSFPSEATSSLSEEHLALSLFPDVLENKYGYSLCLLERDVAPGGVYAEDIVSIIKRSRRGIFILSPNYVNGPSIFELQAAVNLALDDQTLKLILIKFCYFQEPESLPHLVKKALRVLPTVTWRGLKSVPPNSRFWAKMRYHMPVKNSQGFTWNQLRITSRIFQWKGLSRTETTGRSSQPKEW


target: T1, IL-18R on HEK-Blue IL18R reporter cells …; experiment: cell-based or functional assay

Binder	EC50, HEK-Blue IL18R reporter assay
IL-18 polypeptide of SEQ ID NO: 34 (E06K, K53A, S55A) (ligand) YFGKLKSKLSVIRNLNDQVLFIDQGNRPLFEDMTDSDCRDNAPRTIFIISMYADAQPRGMAVTISVKCEKISTLSCENKIISFKEMNPPDNIKDTKSDIIFFQRSVPGHDNKMQFESSSYEGYFLACEKERDLFKLILKKEDELGDRSIMFTVQNED	272 pM
IL-18 polypeptide of SEQ ID NO: 42 (E06K, K53A, S55A, T63A) (ligand) YFGKLKSKLSVIRNLNDQVLFIDQGNRPLFEDMTDSDCRDNAPRTIFIISMYADAQPRGMAVAISVKCEKISTLSCENKIISFKEMNPPDNIKDTKSDIIFFQRSVPGHDNKMQFESSSYEGYFLACEKERDLFKLILKKEDELGDRSIMFTVQNED	0.79 pM
IL-18 polypeptide of SEQ ID NO: 60 (E6K, C38Q, K53A) (ligand) YFGKLKSKLSVIRNLNDQVLFIDQGNRPLFEDMTDSDQRDNAPRTIFIISMYADSQPRGMAVTISVKCEKISTLSCENKIISFKEMNPPDNIKDTKSDIIFFQRSVPGHDNKMQFESSSYEGYFLACEKERDLFKLILKKEDELGDRSIMFTVQNED	0.203 pM
IL-18 polypeptide C143 (V11I, C38A, K53A, C76A, C127A) (ligand) YFGKLESKLSIIRNLNDQVLFIDQGNRPLFEDMTDSDARDNAPRTIFIISMYADSQPRGMAVTISVKCEKISTLSAENKIISFKEMNPPDNIKDTKSDIIFFQRSVPGHDNKMQFESSSYEGYFLAAEKERDLFKLILKKEDELGDRSIMFTVQNED	0.98 pM
IL-18 polypeptide of SEQ ID NO: 50 (E06K, K53A, T63A) (ligand) YFGKLKSKLSVIRNLNDQVLFIDQGNRPLFEDMTDSDCRDNAPRTIFIISMYADSQPRGMAVAISVKCEKISTLSCENKIISFKEMNPPDNIKDTKSDIIFFQRSVPGHDNKMQFESSSYEGYFLACEKERDLFKLILKKEDELGDRSIMFTVQNED	1.77 pM
IL-18 polypeptide of SEQ ID NO: 54 (E06K, K53A, C38S, C68S, C76S, C127S, K70C) (ligand) YFGKLKSKLSVIRNLNDQVLFIDQGNRPLFEDMTDSDSRDNAPRTIFIISMYADSQPRGMAVTISVKSECISTLSSENKIISFKEMNPPDNIKDTKSDIIFFQRSVPGHDNKMQFESSSYEGYFLASEKERDLFKLILKKEDELGDRSIMFTVQNED	9.12 pM
IL-18 polypeptide C144 (V11I, C38A, K53A, T63A, C76A, C127A) (ligand) YFGKLESKLSIIRNLNDQVLFIDQGNRPLFEDMTDSDARDNAPRTIFIISMYADSQPRGMAVAISVKCEKISTLSAENKIISFKEMNPPDNIKDTKSDIIFFQRSVPGHDNKMQFESSSYEGYFLAAEKERDLFKLILKKEDELGDRSIMFTVQNED	0.17 pM
IL-18 polypeptide of SEQ ID NO: 57 (E6K, C38S, K53A) (ligand) YFGKLKSKLSVIRNLNDQVLFIDQGNRPLFEDMTDSDSRDNAPRTIFIISMYADSQPRGMAVTISVKCEKISTLSCENKIISFKEMNPPDNIKDTKSDIIFFQRSVPGHDNKMQFESSSYEGYFLACEKERDLFKLILKKEDELGDRSIMFTVQNED	0.86 pM and 0.53 pM
IL-18 polypeptide of SEQ ID NO: 56 (E6K, K53A, C38S, C76S, C127S) (ligand) YFGKLKSKLSVIRNLNDQVLFIDQGNRPLFEDMTDSDSRDNAPRTIFIISMYADSQPRGMAVTISVKCEKISTLSSENKIISFKEMNPPDNIKDTKSDIIFFQRSVPGHDNKMQFESSSYEGYFLASEKERDLFKLILKKEDELGDRSIMFTVQNED	3.73 pM
IL-18 polypeptide of SEQ ID NO: 62 (E6K, C38A, K53A, C127A) (ligand) YFGKLKSKLSVIRNLNDQVLFIDQGNRPLFEDMTDSDARDNAPRTIFIISMYADSQPRGMAVTISVKCEKISTLSCENKIISFKEMNPPDNIKDTKSDIIFFQRSVPGHDNKMQFESSSYEGYFLAAEKERDLFKLILKKEDELGDRSIMFTVQNED	0.17 pM
IL-18 polypeptide of SEQ ID NO: 59 (E6K, C38A, K53A) (ligand) YFGKLKSKLSVIRNLNDQVLFIDQGNRPLFEDMTDSDARDNAPRTIFIISMYADSQPRGMAVTISVKCEKISTLSCENKIISFKEMNPPDNIKDTKSDIIFFQRSVPGHDNKMQFESSSYEGYFLACEKERDLFKLILKKEDELGDRSIMFTVQNED	0.268 pM
